Source: patent WO2011040973A2 (dated 2011)

T1: murine Fibroblast Activation Protein (FAP), expressed in HEK293 cells (mouse, UniProt P97321 1-761)
T1 construct: whole, on cells; Used on transfected HEK293 cells (flow cytometry) and as lysate of those cells coated on plates (ELISA); also called mouse FAP; muFAP
T1 sequence (looked up): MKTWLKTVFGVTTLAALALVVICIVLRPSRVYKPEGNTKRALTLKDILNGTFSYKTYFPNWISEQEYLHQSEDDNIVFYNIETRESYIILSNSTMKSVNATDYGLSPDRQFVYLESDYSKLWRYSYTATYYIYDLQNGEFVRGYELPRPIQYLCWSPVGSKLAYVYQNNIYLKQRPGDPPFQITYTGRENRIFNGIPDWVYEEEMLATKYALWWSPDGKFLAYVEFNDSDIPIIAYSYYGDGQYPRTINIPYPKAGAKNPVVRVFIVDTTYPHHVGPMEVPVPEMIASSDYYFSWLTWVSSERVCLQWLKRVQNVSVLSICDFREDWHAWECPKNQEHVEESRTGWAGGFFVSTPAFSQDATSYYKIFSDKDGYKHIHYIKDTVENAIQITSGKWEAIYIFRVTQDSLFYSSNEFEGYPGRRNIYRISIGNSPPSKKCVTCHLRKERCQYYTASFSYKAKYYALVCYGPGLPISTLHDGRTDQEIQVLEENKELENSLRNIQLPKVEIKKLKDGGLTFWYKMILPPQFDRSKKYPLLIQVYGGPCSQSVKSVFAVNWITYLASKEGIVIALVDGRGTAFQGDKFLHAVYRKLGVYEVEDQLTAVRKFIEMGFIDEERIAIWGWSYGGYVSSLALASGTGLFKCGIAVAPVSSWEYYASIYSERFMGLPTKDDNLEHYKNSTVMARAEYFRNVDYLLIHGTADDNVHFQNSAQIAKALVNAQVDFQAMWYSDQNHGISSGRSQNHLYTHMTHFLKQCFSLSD

T2: huFAP coated on a surface plasmon resonance chip (human, UniProt Q12884 26-760, limits assumed)
T2 construct: also called human FAP
T2 sequence (looked up): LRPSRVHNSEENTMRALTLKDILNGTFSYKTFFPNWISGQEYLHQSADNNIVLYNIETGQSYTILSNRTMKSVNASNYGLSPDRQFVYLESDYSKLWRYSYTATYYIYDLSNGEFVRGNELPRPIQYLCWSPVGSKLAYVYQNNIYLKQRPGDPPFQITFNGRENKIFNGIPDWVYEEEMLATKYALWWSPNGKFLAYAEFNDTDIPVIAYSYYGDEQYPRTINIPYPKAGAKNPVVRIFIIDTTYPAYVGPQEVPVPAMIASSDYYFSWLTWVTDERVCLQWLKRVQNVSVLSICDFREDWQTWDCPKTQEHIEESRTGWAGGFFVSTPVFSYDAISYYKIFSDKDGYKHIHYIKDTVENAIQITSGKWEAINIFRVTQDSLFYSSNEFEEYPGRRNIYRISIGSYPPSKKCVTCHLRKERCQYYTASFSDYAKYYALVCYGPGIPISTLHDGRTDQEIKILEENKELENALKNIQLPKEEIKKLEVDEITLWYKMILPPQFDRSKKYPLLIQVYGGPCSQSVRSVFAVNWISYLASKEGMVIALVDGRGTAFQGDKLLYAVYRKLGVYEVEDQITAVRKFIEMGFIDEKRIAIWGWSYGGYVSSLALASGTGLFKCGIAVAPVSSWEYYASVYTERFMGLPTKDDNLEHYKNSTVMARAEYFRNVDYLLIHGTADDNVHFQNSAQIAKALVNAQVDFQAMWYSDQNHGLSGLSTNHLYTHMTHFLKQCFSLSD

T3: human Fibroblast Activation Protein (FAP), expressed in transfected cells (human, UniProt Q12884 1-760)
T3 construct: whole, on cells; Used on transfected HT1080 / HEK293 cells (flow cytometry), as lysates of those cells coated on plates (ELISA) and as immunoprecipitate from their extracts; also called human FAP; huFAP
T3 sequence (looked up): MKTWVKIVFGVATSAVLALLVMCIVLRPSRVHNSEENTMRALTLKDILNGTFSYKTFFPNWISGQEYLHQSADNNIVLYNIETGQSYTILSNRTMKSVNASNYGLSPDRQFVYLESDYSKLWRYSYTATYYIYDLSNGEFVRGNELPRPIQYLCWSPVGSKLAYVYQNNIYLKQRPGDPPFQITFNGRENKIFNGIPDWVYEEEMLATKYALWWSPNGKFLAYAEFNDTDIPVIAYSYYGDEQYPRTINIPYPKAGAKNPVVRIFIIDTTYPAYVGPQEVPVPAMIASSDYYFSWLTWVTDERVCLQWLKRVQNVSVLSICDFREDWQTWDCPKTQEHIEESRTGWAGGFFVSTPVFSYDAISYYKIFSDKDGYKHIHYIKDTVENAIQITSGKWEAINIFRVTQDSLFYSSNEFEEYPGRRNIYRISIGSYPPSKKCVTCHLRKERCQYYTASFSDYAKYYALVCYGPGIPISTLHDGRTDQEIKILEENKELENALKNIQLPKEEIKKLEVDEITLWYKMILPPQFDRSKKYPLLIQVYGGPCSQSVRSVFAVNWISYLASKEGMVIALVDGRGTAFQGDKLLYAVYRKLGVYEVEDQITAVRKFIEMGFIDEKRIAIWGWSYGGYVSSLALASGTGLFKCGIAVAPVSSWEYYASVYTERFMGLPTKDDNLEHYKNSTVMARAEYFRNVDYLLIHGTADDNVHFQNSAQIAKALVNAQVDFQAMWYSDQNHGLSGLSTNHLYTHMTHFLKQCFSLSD


How the values were obtained:
[1] = target: T4, human dipeptidyl peptidase IV (DPPIV, CD26), expressed in HEK293 cells (human, UniProt P27487 1-766); test: ELISA on cell-lysate-coated plates (HEK293 huCD26+), Fig. 3
T4 construct: whole, on cells; Used as lysate of transfected HEK293 cells coated on plates (ELISA), on the cells (flow cytometry screening) and as immunoprecipitate; also called huCD26; HEK293 huCD26+
T4 sequence (P27487 whole entry): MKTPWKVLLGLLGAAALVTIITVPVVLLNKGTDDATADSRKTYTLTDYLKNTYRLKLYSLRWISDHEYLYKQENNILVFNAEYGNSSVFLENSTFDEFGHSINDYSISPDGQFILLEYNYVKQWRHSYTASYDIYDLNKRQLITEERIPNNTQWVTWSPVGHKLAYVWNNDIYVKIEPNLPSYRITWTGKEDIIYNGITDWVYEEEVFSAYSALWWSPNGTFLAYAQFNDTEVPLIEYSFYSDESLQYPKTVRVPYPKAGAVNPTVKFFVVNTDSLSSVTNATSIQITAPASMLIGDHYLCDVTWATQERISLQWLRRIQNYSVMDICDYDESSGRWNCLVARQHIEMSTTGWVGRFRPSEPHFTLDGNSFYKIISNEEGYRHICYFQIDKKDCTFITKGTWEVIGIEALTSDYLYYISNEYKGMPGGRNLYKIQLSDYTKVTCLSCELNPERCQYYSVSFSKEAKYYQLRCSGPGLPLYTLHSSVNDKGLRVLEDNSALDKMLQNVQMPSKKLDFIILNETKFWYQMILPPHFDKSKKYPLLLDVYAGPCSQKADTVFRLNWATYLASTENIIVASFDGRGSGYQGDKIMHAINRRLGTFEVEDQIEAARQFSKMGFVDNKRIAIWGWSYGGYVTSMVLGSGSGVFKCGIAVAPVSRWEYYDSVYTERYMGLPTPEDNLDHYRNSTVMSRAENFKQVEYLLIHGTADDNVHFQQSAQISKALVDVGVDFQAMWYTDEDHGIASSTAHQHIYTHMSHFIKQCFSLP

[2] = target: T1, murine Fibroblast Activation Protein …; test: serial dilutions of Fab on 293 muFAP+ cells
[3] = target: T2, huFAP coated on a surface plasmon …; test: surface plasmon resonance, low-density huFAP coated chip
[4] = target: T3, human Fibroblast Activation Protein …; test: binding to antigen expressing cell lines, apparent KD of bivalent IgG

Row | Binder | binding result [1] | Kd [2] [nM] | Kd [3] [nM] | Kd [4] [nM]
1 | Fab ESC14 (Fab, V domains shown, Fully human Fab from a non-immunized phage library, made in E. coli TG-1, with myc tag and His tag) VH: EVQLVQSGAEVKKPGASVKVSCKASGYTFTSYGISWVRQAPGQGLEWMGWISAYNGNTNYAQKLQGRVTMTTDTSTSTAYMELRSLRSDDTAVYYCARDWSRSGYYLPDYWGQGTLVTVSS VL: DVVMTQSPLSLPVTLGQPASISCRSSQSLLHSNGYNYLDWYLQRPGQSPHLLIFLGSNRASGVPDRFSGSGSGTDFTLKISRVEAEDVGIYYCMQALQTPPTFGQGTKVEIK | no binding (tested: 100 nM) | 251 | 210 | –
2 | ESC14 IgG1 (antibody, V domains shown, Variable domains cloned into a full human IgG1 format, made in NS0 cells; also called IgG1 antibody ESC14; ESC14 antibody) VH: EVQLVQSGAEVKKPGASVKVSCKASGYTFTSYGISWVRQAPGQGLEWMGWISAYNGNTNYAQKLQGRVTMTTDTSTSTAYMELRSLRSDDTAVYYCARDWSRSGYYLPDYWGQGTLVTVSS VL: DVVMTQSPLSLPVTLGQPASISCRSSQSLLHSNGYNYLDWYLQRPGQSPHLLIFLGSNRASGVPDRFSGSGSGTDFTLKISRVEAEDVGIYYCMQALQTPPTFGQGTKVEIK | – | – | – | ~1
3 | Fab ESC11 (Fab, V domains shown, Fully human Fab from a non-immunized phage library, made in E. coli TG-1, with myc tag and His tag) VH: HVQLQESGPGLVKPSETLSLTCTVSGGSISSNNYYWGWIRQTPGKGLEWIGSIYYSGSTNYNPSLKSRVTISVDTSKNQFSLKLSSVTAADTAVYYCARGARWQARPATRIDGVAFDIWGQGTMVTVSS VL: ETTLTQSPGTLSLSPGERATLSCRASQTVTRNYLAWYQQKPGQAPRLLMYGASNRAAGVPDRFSGSGSGTDFTLTISRLEPEDFAVYYCQQFGSPYTFGQGTKVEIK | no binding (tested: 100 nM) | 51 | 10 | –
4 | ESC11 IgG1 (antibody, V domains shown, Variable domains cloned into a full human IgG1 format, made in NS0 cells; also called IgG1 antibody ESC11; ESC11 antibody) VH: QVQLQESGPGLVKPSETLSLTCTVSGGSISSNNYYWGWIRQTPGKGLEWIGSIYYSGSTNYNPSLKSRVTISVDTSKNQFSLKLSSVTAADTAVYYCARGARWQARPATRIDGVAFDIWGQGTMVTVSS VL: ETTLTQSPGTLSLSPGERATLSCRASQTVTRNYLAWYQQKPGQAPRLLMYGASNRAAGVPDRFSGSGSGTDFTLTISRLEPEDFAVYYCQQFGSPYTFGQGTKVEIK | – | – | – | ~1
